B1: sdAb10 (VHH)
VHH: EVQLVESGGGLVQPGGSLRLSCAASGNTFPARTMSWVRQAPGKGLELVASIGPGRSTIYADSVKGRFTISRDNSKNTLYLQMNSLRAEDTAVYYCAVAYTSGLALRGSFSYWGQGTLVTVSS
B2: sdAb12 (VHH)
VHH: EVQLVESGGGLVQPGGSLRLSCAASGNTFPARTMSWVRQAPGKGLELVASIGRGEITYYADSVKGRFTISRDNSKNTLYLQMNSLRAEDTAVYYCAAPAHGSWMSRRPHIYWGQGTLVTVSS
B3: sdAb42 (VHH)
VHH: EVQLVESGGGLVQPGGSLRLSCAASGNTSTRHPMSWVRQAPGKGLELVASIGRGEITYYADSVKGRFTISRDNSKNTLYLQMNSLRAEDTAVYYCAVDAVFGGRHSHWGQGTLVTVSS
B4: sdAb38 (VHH)
VHH: EVQLVESGGGLVQPGGSLRLSCAASGNTSTRHPMSWVRQAPGKGLELVASIGRGEITYYADSVKGRFTISRDNSKNTLYLQMNSLRAEDTAVYYCAVCLRSVFVNCHNFAYWGQGTLVTVSS
B5: sdAb39 (VHH)
VHH: EVQLVESGGGLVQPGGSLRLSCAASGNTSTRHPMSWVRQAPGKGLELVASIGRGEITYYADSVKGRFTISRDNSKNTLYLQMNSLRAEDTAVYYCAAFVDFLSRHNSRRPYPHGYWGQGTLVTVSS

Molecular target: SARS-CoV-2 S protein receptor-binding domain (R319-F541) (SARS-CoV-2, UniProt P0DTC2 319-541)
Test: ELISA

Row | Binder | EC50
1 | B1 | 22.2 nM
2 | B2 | 60.1 nM
3 | B3 | 2 nM
4 | B4 | 46.1 nM
5 | B5 | 4.3 nM

— PMC10865538 (2024)
